# Experimental data as given in the RNAGym collection of RNA variant scans (doi:10.1073/pnas.2313332121).
# Variants at the floor of the assay were thinned out.
# B1: TPR 5TU (parent)
# chain: GGAUCUUCUCGAUCUAACAAAAAAGACAAAUCUGCCACAAAGCUUGAGAGCAUCUUCGGAUGCAGAGGCGGCAGCCUUCGGUGGCGCGAUAGCGCCAACGUUCUCAACUAUGACACGCAAAACGCGUGCUCCGUUGAAUGGAGUUUAUCAUG
# Variants of: B1
# Assay: polymerase ribozyme fitness, log enrichment relative to wild type (log ratio); higher = more active; in vitro selection for triplet polymerase activity
# Procedure, shortened: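 Libraries of mutants in each subunit of a heterodimeric triplet polymerase ribozyme were generated by PCR and transcribed. In triplicate, each went through one in vitro selection round: annealing with biotinylated primer, partner subunit and triplets; frozen incubation at −7 °C; gel excision of extended constructs; streptavidin-bead capture; RT-PCR. Fitness, taken from Illumina sequencing of input and output libraries, is the logarithm of a genotype's enrichment over wild-type enrichment, averaged across replicates with inverse-variance weights. The logarithm is base 2, and genotypes needed ≥10 input reads and ≥1 read per output to be kept.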
row,Variant,polymerase ribozyme fitness (log ratio)
1,U7C,-1.19
2,U9G A12U A19U A21U G58A C76U G84A A106U,≤ -4.2
3,U6G U31C U55A C95U A98G G141C,-1.61
4,U6G C14G A16C A20U A21U G42A U61A A64G G71A C85U C87U C129U G136A,≤ -4.2
5,U7A A21C U53G U56A G58C A60U C75A,≤ -4.2
6,C8G A30C C75A G86U C118G,≤ -4.2
7,C8G G25C U53G C63U C108A,≤ -4.2
8,U9C A52G U53A C114G U145G,≤ -4.2
9,C8A U15G C95U A98G C149U A150U,-4.06
10,C8U C99A,-3.69
11,U9A U31G C57U G74C G92C,≤ -4.2
12,C8A A17U A39U C85U U139A,≤ -4.2
13,U7G A20C U56A C72G A73G C85U C93G A98G A115U,≤ -4.2
14,U6G C18G C36U C96G A98G,-2.92
15,U6G A60C A73C C87A C118U,≤ -4.2
16,U7G C8A G46C C63U G83C C85G C114G C149A,≤ -4.2
17,C8U C10A A23C G59U G88U,≤ -4.2
18,U7G C96U,-2.17
19,U7C A41C C87U G126A,-3.82
20,U6G A73U G81C A98C C99U U144C,-3.62
21,U7A C10G C32A U33A G50C G83U A91G U102C,≤ -4.2

row,Variant,polymerase ribozyme fitness (log ratio)
1,U7G A26C U44A G74C A115C,≤ -4.2
2,C8U G94A,-3.24
3,U7A A22C C85U,-4.04
4,C8U C18G G50C G58U A73G C76A C93A C116A A120C,≤ -4.2
5,U7A U9C A20G U53G C87U A98U,-3.99
6,U6G G83C,-0.223
7,C8A G42U G50A G74U C95U,≤ -4.2
8,U7C U9C A20U C75G C93U A106C C114A,≤ -4.2
9,C8G A52G C57U G80C U104G U148G,≤ -4.2
10,U7C G68U A73G U82A G92A U101C C116A A137C,≤ -4.2
11,U9C C10G C35U G94A C103A C108U A115U G140U,≤ -4.2
12,U7A C27A U31G A66U U146G A150U,≤ -4.2
13,C8U C18A A20C A23C G62C A89G G136U,≤ -4.2
14,U9C G84A C103U,≤ -4.2
15,U7C A23U C87A A89G A115U U134A,≤ -4.2
16,C8G G42A G59U A66U C87G U139G,≤ -4.2
17,C8U A21C A28U U53A U77G G88U U145G A150C,≤ -4.2
18,U7G A26U U56G G59C G83A C96U A138C,≤ -4.2
19,U7C A16C C35U C63U A121G G133C,≤ -4.2
20,C8A A24G A41C C93U A97U A120G,≤ -4.2
21,U6G G80C C149A,≤ -4.2

row,Variant,polymerase ribozyme fitness (log ratio)
1,U7G G48A G59A A60G A97G,-3.81
2,C8A C27U C76U,≤ -4.2
3,U7C C18G G25C A28U C38G U55A G70C G94C,≤ -4.2
4,C8G A24U G25U G80A C96G C125A,≤ -4.2
5,C8G A21C,-3.31
6,U6G C95U C96G,-0.705
7,U9A C149G,≤ -4.2
8,U9A A28G A41C A64U G80U C87A C95U C131G,≤ -4.2
9,U9G A17G A41G U53A U77G G84U C116A G141A A147G,≤ -4.2
10,U7G A19C A40G U56A A120G A150C,≤ -4.2
11,U7G A16U A28C G62C G86U C95U A110U,≤ -4.2
12,U7A A22C A28C A60C G92A G143C A147G,≤ -4.2
13,U6G C43A A52C C85A A98U A113C,≤ -4.2
14,U6G G11C C14U C93A,≤ -4.2
15,U7G C35U U45A A52U G59A C93G G128A G141C,≤ -4.2
16,U9G A41U U53A C96A U102A A150U,≤ -4.2
17,U6G G46A A113U C125U G136U U146C,≤ -4.2
18,U6G G59U U61A C72U A89G U90A C93G C108U A122U,≤ -4.2
19,C8U A60G A121C,-3.73
20,C8G G59C G86C G117U,≤ -4.2
21,U7A A22G U77C G124U C132A,≤ -4.2

row,Variant,polymerase ribozyme fitness (log ratio)
1,U7A A26G A47G A66U G71C C131U U139G,≤ -4.2
2,C8A G83U U90G C118A,≤ -4.2
3,U9C C93A,≤ -4.2
4,C8U A26U U44A C85U A115U C118A G133U,≤ -4.2
5,U9A C27U C36A G42C C69A G80A G136U G141C,≤ -4.2
6,U7G A37G C38U G59U A60U G94U C108U,≤ -4.2
7,U7G A12C C51G A64C C123U C132G,≤ -4.2
8,C8U C54A,-3.8
9,C8G A17G A21U A98G,-3.93
10,C8A C32A G62A U82G G143A,≤ -4.2
11,U6G U56A G70C C85G A107U U144G,≤ -4.2
12,C8U C18G C38A C76U U78C A106U A110C C132G U135C U144C U148A C149G,≤ -4.2
13,C8A A24G U61A C76G U78C G84U,≤ -4.2
14,U7G A26U U56A G59U C75G G84U G94U U130G U146C,≤ -4.2
15,C8G A16C G25U A37C G59C A64U C87A G92C,≤ -4.2
16,U9C A40C U56A C96G U101C U134C,≤ -4.2
17,C8U A60U,-3.79
18,U7G C96U C129U A137G,≤ -4.2
19,U9G A24U C96U U144G,≤ -4.2
20,U6G C51A G83C,-2.97
